test: soluble fraction after stress (log2 fold change); higher = more stays soluble; pooled small domains, quantitative proteomics; details: stress: 50 degC
Outline: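 Quantitative proteomics served as the high-throughput read-out for pooled custom libraries of small protein domains. Each was stressed at 50°C. Aggregation propensity is expressed as the base-two log fold change in soluble protein after stress. A higher value means a larger share of the protein remains in solution.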

Sequence	soluble fraction (log2)
HMALALSGVDLNRNRLTISWQTSKGVSYRVQRSSDLQSWTDVGAERLGNGNRLSHTQALNTESAFLRVII	-0.0897
HMISIKEAVFPFSRFPGVDTLLGPEMKSTGEVMGLADNFGHAYAKSQIASGSKLPESGTLFVSVKNSD	-0.309
HMQKEIKVPDVANMALSEAVEKLQNEGFKVADEQKEVSSDEIEEGKVVKTSPVAGTKKTKGSEITIYISSG	-0.0254
HMDDAFLNKEMLKQALENLNEREKKLIYLRFYEGLTQKEIADRLSLSQMHVSRLLNESLNKLRRKI	-0.245
HMLINLGPRIRKERRSKGISQSDFSKNLGISASYLNLLENGRRTLTVPLLIKIGNELNLSLKDL	-0.0339
HMVEKRLFPQISDAGKRLDLFLAGALAISRTMVVKIIKDGGVLVNGKAAKASYRLAGDEELLVSYEEP	0.395
HMGTSIMIIIVKPETKKERVNDLIHWIESQNLRTHLSTGDYSTIIGVIGDTSKLDSELIRGLDIVENVKRV	-0.318
HMNVVGAKGRIIKISSSEEKMAVAEIEGHGEWNIRTNSEIELFVGKSVEVIEMKGNYLLVNQI	-0.0624
HMSLEDNEVIQRMKVILDRFDEETAVDRTTAFKAVLDHIGKMDAESKTLEHMAEMLEALLDKVLEE	-0.237
HMSESKYKMIKNWIKSKILDGTLVPNQKIYSESELMEIFDVSRHTVRLAIGELVSEGYLFKRQGTGTFVTQ	-0.577
HMNKKEQYQNIISNFLEKMSEEDRLIFNMHFFKSINISQIARSIDREGYYVKTKIENLLADLKSLMIGNNL	-1.95
HMEEQGLPLVIISDGKVLAQNLTLRSLDRAWLQDQLTQHGHSKPEQVFLLTVDERGAVYYVPKE	-0.37
HMDGMNEELYQKFFALVGNPDEGKRISQAKAAQALGYSSAVVSAYKNRTYNGNIKAFEDAVQAWLKREERR	0.000413
HMILNWSEYTRSEIIELARDLSPDKYMIIDDINTYSKMKLLPSQAFIAEMFGSLRQFQKEAWGRE	-1.88
HMATVGENIRRYRKAQNLSAAKLAEKVGLTQGAILHYERGIRTPGISQLEKIAHALNVSPRM	-0.0581
HMRHKSNRRLTAAHQIEQQIQKLLMENTMEAKELKESLNFAAKDIDTVLSWLVDKDKVRINAINQYYWT	-0.767
HMSKSPELMEKIKEFAEGYFRENGETPSNKTIAGAMGMGRSTVYYYLVDMAQRGMISYENGVISTEKIRKL	-1.32
HMLFQQPATMIGKIGVAMSDLRPSGKIKIDDEWYDGQSEGDYILKGQEIIVVQVMNAYLIVRL	0.126
HMEFDFGAILSGNGGSELYSGYSAEQKAALVEAAKADGMDVEFGADGSTTFKDKDGSEVVQKADGTWTV	0.18
HMDGEAQTYVEYGKWFPADLPLEAVRQLADGVPVTKELVAALNPRRSEWEEIKAGLDKIGYPNELL	0.0308
HMYKLTTQRRAILDVIIENHDKHLNPEEIYDIVKEKYPEIGIATVYRTLQLLEKLNIIYRLNFDDGYNRYE	-2.3
HMEFDVELTSFEEAKKLKVIKEVKDVTGLSLGEAKDLVMGAPKAIKTGVSKEEAEAIKTQIEAAGAVVTI	0.122
HMGVIGADIRALRVSRGWTLSDLAEALDRSVGWLSQVERDVSEPALADIRRIAGIFDLPVSFFFSD	-2.86
HMIPKIIDITDLNEEVREVIEEYMKRKRVEKYHIYQDSKGQIFIISGSAIIRYDSKLNNLYYL	-0.405
HMSVEVPNLIGKTLDQVDIDLKSLDLSFVILDSARYNSSFKPLSVIDHQPISGAKVKVNRKIYLTINPS	-0.445
HMFDPAKQMQRIRKYAGMNRKEFSEWLNIPYRTMTDWELGNRTMPVYLLELIVYKVNHEIANA	0.186
HMSNAIDDAVEKVISENLDLAKERGLQSMGPLMGLVMKELGGTADGKAVSEALRRKISEISD	0.293
HMGFTDREREIIRNDLVATGRELFGTFGLKKTSIEDLTKAVGIAQGSFYTFFNSKEELYLEVMDREGEA	-0.851

Sequence	soluble fraction (log2)
HMAPGASEVPDLTSLPAREALLRLTKLGLLPEMEGTGRLVRQQPAAGTRVPKGSKVHLVFEPG	0.0613
HMTKEEREKREKYEKLMKKAEELTAAKNHREVINVLGQAKAYATAAQLKEIEEKIKAATSEMNK	0.136
HMIANNFDEFVEKVSEAERKALNMPAGQEMTQKLLEMKLAANPNLTPEEWQRTKSEFMTFLFAVFVRE	-0.842
HMGTSGLTIPRFVSLASGTVHMRAGPGVRYPITWIYKRLGTPLMVMAEHEFWRKVRDAEGTEGWMHRSLLS	-0.0684
HMNWQLITDPKELRELVQKTIADNEAGTSRLREGDMGPLEFLTGIIMKKTRGLADPTMVKALLKEELNI	0.132
HMLKLEEIQPNATVRGILPDALITVVNVKWFGSEALELTYKDTSGRVANQLLFRDDQPRLEIVE	-0.538
HMPENESPEEKHARFRRFAEGLMARLDENESVRDILPELKVWLDDRELDRDDQRLARNLMLTAGKRE	0.0802
HMLNPVEKLLLLSQLYIGRLKGSFVVKEKHHKSTILGEVRELSPEEITLKTDEGYRLIRVDDILTIQL	-2.18
HMSWDNELLERAHKIIELYPQKRSALGPLLYLAQEKDGFISDDSIVEISNLVDITEVQVKSVSSFYSMY	-0.268
HMDETPESIFAKANELYPKYIKYFYTEQEYYSKVEEYINLYEFQKNSTYILGKDLEEFLEEYITNKQ	-0.517
HMTSSQLNIEELERRMMMHLEQNGFITRSIYTNLTGRLKWKATEDLKIFVEKGLIRKMGRGNQMYYVKVE	-1.7
HMGEELIEIQNLRNKERREAEAILKNLDLVPVIQEQFDDTVPINRVITTDPGPDSTVKKGTTVMIYVSKGP	0.253
HMWSQEPEYRPLYNSMDGFDAGQVVEMLQQSRIDYKVEPNSGALLVRSEDLADARLRLASAGISP	-0.0156
HMGTSRVQSILFDQSQWTINRAVHWLNTHHFISTKIDKTDKYLRFRQFDPNPDSHHATKRTSQGITFILE	-3.51
HMGKIFSELTPREIEVVRLIADGLSNQQIAEELFLSNGTVRNHISTILEKTGLEHRTQIAVMWLR	-0.146
HMTATWLTYYRIKAGLTQKRLAELAGLNIRQVQKIENGETLAGNTTAKNLLALADALGIDPHKL	-2.05
HMNTIIIDILPKGLSIAGNQTEPKSLIQQLLMARRADPAQPILLRPAIAVPVQNVVELIDRLTAAGI	-0.221
HMRFANGHLIWDTIIELRNAERRINRRALADLTGLKPGVVDDHVERWIEKDQLRRAGNGELEVV	-0.943
HMAPEPFIVQITASSLNVRKGPGTSYAVAQTVSKGQVFTIVQQQGGWGKLKSGAGWISLKYTAR	-1.36
HMTKEAIAQKLRIARQESGLTQKDVSAKIGRPQQTIASWEVGRSQPDADTLYSLLLLYKVSPNTFFEYD	-0.352
HMTVTKYGKKILEIVSSSRSHMTAEEIFDALRQTYPTVVLATVYNNLNRLWQDDLIRKVSVEGMPDRYD	-1.22
HMENYYMPVVAGQSEQDAKSMLNAMKLSLSIQVQEQESDSVAKGLAIGTSPAAGSQIRKGSSVILYISKGA	-0.0609
HMNSNIIKTINDELSIRKGKYGPYIMYKTKKMKRPKFKSIGDNTPDEFLADKGSISEIILWIN	-0.444
HMDEEEKGEVEVPNLIGLTRKEAKKTLEEEGLLIETKESLKTNLDDEYEKIKSQLPKAGIKIKQGSTVYVD	0.0917
HMDDLTTASIKQQLKALIDEENKNKPLSDQKLTDALKAQGIDISRRTVAKYREAMNIPGSSKRKRF	0.0936
HMNLLGERIREIRMEMGLTAKELAQRASVTPGYISQIEHDQIKPSMNVMMRIAEVLNVPMAALLM	-0.51
HMKIPGIGDVYAILARVYSGPQFTWIEAGFPEDDTKAYSYLHTAIRKGSAIAILQAMRTSGALTPTIEKE	-0.444

Reference: the domain aggregation screens of Martell et al. (2025)
